Source: paper PMC7565984, “A Phosphorylation-Induced Switch in the Nuclear Localization Sequence of the Intrinsically Disordered NUPR1 Hampers Binding to Importin” (Biomolecules, 2020)

Tests used:
[1] = target: T1, truncated importin α3 without the IBB domain (residues 64-521) (human, UniProt O00629 64-521); test: ITC; intact NUPR1 with ΔImpα3; conditions of this titration are not told (Figure S4); settings: both partners purified
T1 construct: human importin α3 (KPNA4) without the IBB domain, residues 64-521; also called ΔImpα3; ΔImportin
T1 sequence (looked up): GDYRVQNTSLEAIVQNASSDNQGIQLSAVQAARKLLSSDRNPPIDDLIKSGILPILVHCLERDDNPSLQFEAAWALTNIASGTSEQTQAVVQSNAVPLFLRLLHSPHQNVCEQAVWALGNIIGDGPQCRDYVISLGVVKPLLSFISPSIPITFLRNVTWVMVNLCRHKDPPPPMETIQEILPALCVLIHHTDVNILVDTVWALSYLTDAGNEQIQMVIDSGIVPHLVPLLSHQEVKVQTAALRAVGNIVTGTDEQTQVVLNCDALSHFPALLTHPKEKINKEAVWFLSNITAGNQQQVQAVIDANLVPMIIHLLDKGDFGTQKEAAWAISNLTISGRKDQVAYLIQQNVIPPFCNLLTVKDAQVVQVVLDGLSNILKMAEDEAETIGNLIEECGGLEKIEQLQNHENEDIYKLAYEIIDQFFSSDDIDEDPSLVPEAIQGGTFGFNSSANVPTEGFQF

[2] = target: T2, ΔImpα3 (importin α3 without the IBB domain, residues 64-521) (Homo sapiens, UniProt O00629); test: ITC binding of NLS-NUPR1 peptides / NUPR1 to ΔImpα3; settings: ITC, 298 K, Tris 50 mM pH 8; importin 10–20 μM in cell, peptide 150–300 μM in syringe; 1:1 model; at least duplicates; relative error 30%; read-out: Kd (dissociation constant), ΔImpα3
T2 construct: The His-tagged ΔImpα3 (residues 64-521) was obtained from BL21 (DE3) cells as described; His-tag; made in house; host or cells: Escherichia coli BL21 (DE3)
T2 sequence (O00629 64-521): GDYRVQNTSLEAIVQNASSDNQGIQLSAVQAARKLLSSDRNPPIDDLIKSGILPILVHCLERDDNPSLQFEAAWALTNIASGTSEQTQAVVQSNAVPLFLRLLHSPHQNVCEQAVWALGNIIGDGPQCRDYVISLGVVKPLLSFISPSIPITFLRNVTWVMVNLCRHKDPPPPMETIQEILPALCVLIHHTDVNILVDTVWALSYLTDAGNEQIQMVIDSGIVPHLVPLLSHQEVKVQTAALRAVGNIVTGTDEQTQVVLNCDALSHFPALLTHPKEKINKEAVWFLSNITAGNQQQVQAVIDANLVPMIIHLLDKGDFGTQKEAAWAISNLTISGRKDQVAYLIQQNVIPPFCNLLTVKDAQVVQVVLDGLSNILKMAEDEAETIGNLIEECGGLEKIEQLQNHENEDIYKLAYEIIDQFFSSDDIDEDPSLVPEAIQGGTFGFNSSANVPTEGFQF
Protocol: The experimental set-up and data processing of ITC experiments has been described previously. Calorimetric titrations, performed in an Auto-iTC200 calorimeter (MicroCal, Malvern-Panalytical, Malvern, UK) consisted of series of 19 2-μL injections, with 150 s time spacing and a 750-rpm stirring speed. Impα3 or ΔImpα3 (at 10–20 μM) was loaded into the calorimetric cell and NLS-NUPR1 peptides in the syringe (150–300 μM); all solutions were prepared in buffer Tris 50 mM, pH 8. […] The binding affinity (association constant) and the binding enthalpy were estimated through a least-squares nonlinear regression data analysis, from which the Gibbs energy and the entropic contribution to the binding were calculated using well-known thermodynamic relationships. Since the binding stoichiometry is constrained by the model, the parameter n provides a fraction of the active or binding competent protein. Experiments for each peptide and importin species were performed, at least, in duplicates.

[3] = target: T3, human importin α3 (Impα3) (Homo sapiens, UniProt O00629); settings: ITC, shown in Figure S4 for comparison; previously measured; read-out: Kd (dissociation constant) of intact NUPR1 for Impα3; cited from earlier work
T3 construct: although the IBB region maintains its independence within the whole Impα3 in terms of conformation; His-tag (N); made in house; host or cells: Escherichia coli BL21 (DE3)
T3 sequence (O00629 1-521): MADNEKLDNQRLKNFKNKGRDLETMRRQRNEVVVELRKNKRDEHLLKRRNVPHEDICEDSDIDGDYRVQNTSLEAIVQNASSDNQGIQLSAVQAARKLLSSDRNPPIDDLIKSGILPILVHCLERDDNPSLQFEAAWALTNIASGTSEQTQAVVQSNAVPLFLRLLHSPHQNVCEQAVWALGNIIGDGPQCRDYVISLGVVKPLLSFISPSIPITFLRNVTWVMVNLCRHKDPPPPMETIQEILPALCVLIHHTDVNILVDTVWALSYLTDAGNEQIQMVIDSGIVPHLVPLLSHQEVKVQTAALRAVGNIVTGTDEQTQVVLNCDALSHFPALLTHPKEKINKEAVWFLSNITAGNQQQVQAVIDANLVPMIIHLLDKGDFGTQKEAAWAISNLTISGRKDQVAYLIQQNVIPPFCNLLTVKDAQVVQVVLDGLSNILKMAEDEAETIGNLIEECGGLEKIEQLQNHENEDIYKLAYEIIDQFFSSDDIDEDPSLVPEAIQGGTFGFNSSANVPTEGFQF
Excerpt: Furthermore, we tried to dissect the affinity of the NLS region of NUPR1 for Impα3 by using a “divide and conquer” approach with the peptides comprising the region. The interaction between full-length NUPR1 and its mutants with Impα3 and ΔImpα3 was the focus of this study, but instead, we emplo ... || In this work, we tried first to find out whether the theoretically predicted NLS region of NUPR1 was capable of binding in isolation to Impα3. Second, we tried to elucidate, for the first time, the molecular bases behind the binding of an NLS region of an IDP to an importin. […] These findings allow us to draw several conclusions. […] However, t ...

B1: intact NUPR1 (full-length, 82 residues) (natural protein, UniProt O60356 1-82, looked up)
chain: MATFPPATSAPQQPPGPEDEDSSLDESDLYSLAHSYLGGGGRKGRTKREAAANTNRPSPGGHERKLVTKLQNSERKKRGARR
notes: NUPR1, UniProtKB O60356, 82 residues long (8 kDa), intact protein; also called full-length NUPR1; nuclear protein 1
Kd [1]: 400 nM | Kd [2]: 440 nM | Kd [3]: 1400 nM
